Experimental data from patent publication US5733890A, “Adenylate analogs as potent anti-herpes virus agents” (National Science Council, priority 1996, dated 1998).

Columns and labels:
Assay in all cases: Deamination kinetics of compounds as substrates of adenosine deaminase
Type in all cases: biochemical, calf
Details in all cases: other: adenosine deaminase substrate; buffer solutions
[1] = substrate: Nc1ncnc2c1ncn2[C@@H]1O[C@H](CO)[C@@H](O)[C@@H]1O
Description: (§1) By following an established procedure [Ogilvie, K. K.; Nguyen-Ba, N.; Gillen, M. F.; Radatus, B. K.; Cheriyan, U. O.; Hanna, H. R.; Smith, K. O.; Galloway, K. S. Synthesis of A Purine Acyclonucleoside Series Having Pronounced Antiviral Activity. The Glyceropurines. Can. J. Chem. 1984, 62, 241-252.], we determined the rates of deamination of VI, 13, 37, 40, and 42 in the presence of calf mucosal adenosine deaminase (EC 3.5.4.4) in buffer solutions.

[2] = substrate: Nc1ncnc2c1ncn2COCCO
Description: as §1

[3] = substrate: Nc1ncnc2c1ncn2COCCP(=O)(O)O
Description: as §1

[4] = substrate: Nc1ncnc2c1ncn2COCCP(=O)(O)O[C@H]1[C@H](O)[C@H](n2cnc3c(N)ncnc32)O[C@@H]1CO
Description: as §1

B1: calf mucosal adenosine deaminase (EC 3.5.4.4) (Bos taurus) (protein)
chain: MAQTPAFNKPKVELHVHLDGAIKPETILYYGRKRGIALPADTPEELQNIIGMDKPLSLPEFLAKFDYYMPAIAGCREAVKRIAYEFVEMKAKDGVVYVEVRYSPHLLANSKVEPIPWNQAEGDLTPDEVVSLVNQGLQEGERDFGVKVRSILCCMRHQPSWSSEVVELCKKYREQTVVAIDLAGDETIEGSSLFPGHVKAYAEAVKSGVHRTVHAGEVGSANVVKEAVDTLKTERLGHGYHTLEDATLYNRLRQENMHFEVCPWSSYLTGAWKPDTEHPVVRFKNDQVNYSLNTDDPLIFKSTLDTDYQMTKNEMGFTEEEFKRLNINAAKSSFLPEDEKKELLDLLYKAYGMPSPASAEQCL
notes: calf mucosal adenosine deaminase; from tissue; host or cells: calf mucosa
Q: For B1, which Km [1] is on record?
A: 45.3 µM

Q: What about the Km [2] of the same protein?
A: 138.0 µM

Q: What about the Km [3] of the same protein?
A: 247.5 µM

Q: What about the Km [4] of the same protein?
A: 166.2 µM
